Legend:
[1] = target: GDNF family receptor alpha 1 (GFRA1) (UniProt P56159); experiment: cell-based or functional assay
[2] = target: trans-membrane receptor kinase RET (UniProt P07949); experiment: cell-based or functional assay
Sequence of trans-membrane receptor kinase RET (P07949 29-1114 limits assumed): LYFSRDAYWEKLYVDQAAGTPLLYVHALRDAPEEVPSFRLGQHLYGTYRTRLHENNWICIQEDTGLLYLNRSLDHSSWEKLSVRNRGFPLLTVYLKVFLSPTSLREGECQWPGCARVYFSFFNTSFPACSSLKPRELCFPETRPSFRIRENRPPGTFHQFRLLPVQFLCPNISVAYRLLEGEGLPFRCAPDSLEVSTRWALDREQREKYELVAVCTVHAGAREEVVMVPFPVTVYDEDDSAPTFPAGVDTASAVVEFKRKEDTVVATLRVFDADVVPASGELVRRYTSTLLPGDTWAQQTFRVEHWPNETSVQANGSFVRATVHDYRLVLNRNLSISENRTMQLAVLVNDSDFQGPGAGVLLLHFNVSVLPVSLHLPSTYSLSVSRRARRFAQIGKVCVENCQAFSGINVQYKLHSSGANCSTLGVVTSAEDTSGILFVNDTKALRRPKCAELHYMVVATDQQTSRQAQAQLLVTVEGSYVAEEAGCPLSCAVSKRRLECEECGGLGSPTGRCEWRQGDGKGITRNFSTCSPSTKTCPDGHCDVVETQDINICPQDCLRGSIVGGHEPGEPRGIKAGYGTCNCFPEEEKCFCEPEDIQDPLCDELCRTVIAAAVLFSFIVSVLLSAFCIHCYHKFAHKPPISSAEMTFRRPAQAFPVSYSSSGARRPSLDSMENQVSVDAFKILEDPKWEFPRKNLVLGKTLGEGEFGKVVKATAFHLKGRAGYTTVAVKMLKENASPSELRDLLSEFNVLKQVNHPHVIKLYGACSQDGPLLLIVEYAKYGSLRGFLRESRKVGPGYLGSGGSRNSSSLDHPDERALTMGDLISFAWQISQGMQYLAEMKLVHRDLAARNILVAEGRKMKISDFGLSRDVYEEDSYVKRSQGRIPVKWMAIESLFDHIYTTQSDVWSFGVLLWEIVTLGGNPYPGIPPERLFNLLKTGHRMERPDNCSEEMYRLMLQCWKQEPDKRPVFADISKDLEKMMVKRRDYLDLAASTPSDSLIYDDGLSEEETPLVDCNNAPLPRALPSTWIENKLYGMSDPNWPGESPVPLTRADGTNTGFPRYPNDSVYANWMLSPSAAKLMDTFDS

Sequence of GDNF family receptor alpha 1 (GFRA1) (P56159 25-429 limits assumed): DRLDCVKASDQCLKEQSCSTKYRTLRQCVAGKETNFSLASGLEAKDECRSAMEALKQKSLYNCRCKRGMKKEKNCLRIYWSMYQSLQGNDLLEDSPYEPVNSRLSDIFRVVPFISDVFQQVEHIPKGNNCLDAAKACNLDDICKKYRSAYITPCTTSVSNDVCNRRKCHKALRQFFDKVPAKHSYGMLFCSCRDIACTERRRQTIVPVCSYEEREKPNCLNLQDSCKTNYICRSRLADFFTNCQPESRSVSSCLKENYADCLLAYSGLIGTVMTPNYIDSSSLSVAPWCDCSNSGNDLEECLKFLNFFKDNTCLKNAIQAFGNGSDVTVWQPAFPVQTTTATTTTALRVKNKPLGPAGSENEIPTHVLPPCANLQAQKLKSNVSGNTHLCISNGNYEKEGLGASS

glial cell line-derived neurotrophic factor (GDNF) (from UniProt P39905 78-211) (ligand)
proliferation, GDNF concentration of maximum stimulation [1]: 10 ng/mL | proliferation, GDNF concentration of maximum stimulation [2]: 10 ng/mL

From patent publication US20150309037A1
